As usually defined, the EC50 is the concentration needed to bring the measured effect to its halfway point. A high value points to a need for much substance.

Here are results for 7 molecules from US20220096653A1, “CONJUGATE COMPRISING LIGAND AND CEACAM5 ANTIBODY FAB FRAGMENT” (ASTELLAS PHARMA INC., priority 2019, published 2022).

Data set [1] concerns liver metastasis. Conditions: compared with the normal liver; cited from earlier work.
The conditions of data set [2]: mouse, in vivo; cited from earlier work.
The target in data set [3] is human cancer-specific MUC1 peptide (PTL 1) (human). Description: ELISA on immobilised human cancer-specific MUC1 peptide, 4-parameter fit; one of 3 runs (Example 6-1). (ELISA stands for enzyme-linked immunosorbent assay.)
The target is the same in data set [4]. Description: ELISA on immobilised human cancer-specific MUC1 peptide, 4-parameter fit; one of 3 runs (Example 6-2).
For data set [5], the target named is T1, CEACAM5 (R&D Systems, 4128-CM-050) (human, UniProt P06731 35-685).
T1 construct: Immobilised on the ELISA plate; also called human CEACAM5
T1 sequence (looked up): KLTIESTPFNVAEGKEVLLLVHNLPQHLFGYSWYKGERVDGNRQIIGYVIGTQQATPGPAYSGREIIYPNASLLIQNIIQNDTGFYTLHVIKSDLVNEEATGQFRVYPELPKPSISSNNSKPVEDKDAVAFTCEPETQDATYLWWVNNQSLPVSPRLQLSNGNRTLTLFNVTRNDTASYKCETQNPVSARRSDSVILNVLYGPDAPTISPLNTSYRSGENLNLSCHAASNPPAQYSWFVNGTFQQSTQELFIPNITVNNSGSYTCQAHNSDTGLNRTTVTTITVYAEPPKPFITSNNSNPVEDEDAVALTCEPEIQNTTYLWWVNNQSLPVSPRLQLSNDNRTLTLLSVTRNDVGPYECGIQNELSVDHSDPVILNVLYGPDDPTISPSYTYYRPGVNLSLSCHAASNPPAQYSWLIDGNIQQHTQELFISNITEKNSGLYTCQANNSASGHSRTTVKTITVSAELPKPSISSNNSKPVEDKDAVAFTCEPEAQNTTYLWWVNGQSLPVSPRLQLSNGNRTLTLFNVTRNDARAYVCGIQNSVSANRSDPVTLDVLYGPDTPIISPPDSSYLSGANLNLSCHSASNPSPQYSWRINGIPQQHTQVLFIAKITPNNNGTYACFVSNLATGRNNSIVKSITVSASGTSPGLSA
Description: ELISA on immobilised CEACAM5, 4-parameter fit; geometric mean of 9 runs. As to the method:
(§1) Each anti-human CEACAM5 antibody Fab fragment conjugate prepared in Example 2 was subjected to ELISA to evaluate the binding activity thereof to CEACAM5. In the present test, a phosphate buffer (Nacalai Tesque Inc., 0.1 mol/L-Phosphate Buffer Solution (pH 7.2)) prepared to 10 mM by diluting 10-fold with distilled water was used as a solvent for an antigen immobilization liquid, and 20×PBS/Tween 20 Buffer (Thermo Fisher Scientific Inc., 28352) diluted 20-fold with distilled water was used as a wash liquid. In addition, for bovine serum albumin (BSA) used in the present test, 30% Bovine Serum Albumin solution (Sigma-Aldrich, Inc., A9576-50ML) was added in an appropriate proportion for use. CEACAM5 (R&D Systems, 4128-CM-050) was diluted with a 10 mM phosphate buffer (pH 7.2) to 0.1 μg/mL, and added to a Nunc MaxiSorp White 384 plate (Nunc, 4603272) at 30 μL per well, and the plate was incubated overnight at 4° C. for immobilization. The CEACAM5 immobilization liquid was removed by reverse centrifugation, and then blocking was carried out by adding a PBS/Tween 20 buffer containing 5.0% BSA. […] The substrate was incubated at room temperature for 15 minutes, and then a signal value thereof was measured using an Envision counter (PerkinElmer, Inc.).
The test for each antibody was carried out in duplicate, and an EC₅₀ value was calculated using a 4-parameter logistic curve model.

Data set [6] concerns the target T1, CEACAM5 (R&D Systems, 4128-CM-050). In words: ELISA on immobilised CEACAM5, 4-parameter fit; one of 2 runs (Example 3-2). On the procedure: as §1
(§2) The test for each antibody was carried out in duplicate, and the EC₅₀ value was calculated using a 4-parameter logistic curve model.

Data set [7] shares this target. In words: ELISA on immobilised CEACAM5, 4-parameter fit, duplicate (Example 3-2). As to the method:
as §1, §2

On the set-up of data set [8]: species or system mice (BALB/c nu/nu). Conditions: mouse, in vivo.
Description: (§3) A Gd-labeled conjugate of the conjugate containing a peptide linker produced in one of the above Examples was administered from the tail vein of tumor-bearing mice so that the protein mass was 0.02 mg (100 μL) per animal. As the tumor-bearing mice used in the present Example, mice (BALB/c nu/nu) that were in a tumor-bearing state brought about by transplanting human colorectal cancer cell line LS174T cells (ATCC(registered trademark); CL-188) at 2.0 to 5.0×10^6 cells/mouse subcutaneously on the back before administration of the sample were used. 24 hours after administration of the sample, the mice were sacrificed, the kidneys and the tumor were removed, and the amounts of Gd in the kidneys and in the tumor were measured using ICP-MS. The present test was carried out in 3 cases in each group, and the mean value of the 3 cases was calculated. The amount of Gd contained per kidney after administration was shown as a percentage of the amount of Gd administered (% of dose/tissue), and the amount of Gd contained per g of tumor tissue was shown as a percentage of the total amount of Gd administered (% of dose/g).
A short description of data set [9]: Kidney accumulation evaluation test of Gd-labeled conjugates, normal mice (Example 4-1).
Description: A Gd-labeled conjugate of the conjugate containing a peptide linker produced in one of the above Examples was administered from the tail vein of mice (BALB/c or BALB/c nu/nu) so that the protein mass was 0.02 mg (100 μL) per animal. After about 24 hours, the mice were sacrificed and the kidneys were removed, and the amount of Gd in the kidneys was measured using ICP-MS. The present test was carried out in 3 cases in each group, the mean value of the 3 cases was calculated, and the amount of Gd contained per kidney after administration was shown as a percentage (% of dose/tissue) of the total amount of Gd administered.
Based on the percentage of the control conjugate (% of dose/tissue), the proportion of decrease in the amount of Gd contained in the kidneys of each of the conjugates having a peptide linker was determined and shown in Table 28.
The test system of data set [10] is human colorectal cancer cell line LS174T cells. In words: Amount of tumor accumulation of Gd-labeled conjugates, LS174T tumor-bearing mice (Example 4-4). Conditions: Gd per g of tumor tissue, 24 hours, mean of 3 cases.
Description: as §3

Several values for one entry are separate records, joined by “and”; a condition that tells them apart may be missing. Equal entries are not always repeated.

As for “CEA-Scan: mouse monoclonal antibody NP-4 Fab′ labeled with ^99mTc; FDA-approved diagnostic drug for colorectal cancer”, in [1], the “uptake into lesion sites” value is listed as “does not exceed the uptake into the normal liver”.
For the molecule “[^111In]DOTA-Rituxan Fab: conjugate of [^111In]DOTA-Rituxan Fab (NPL 11)”, in data set [2], the “accumulation in the kidneys” value is “highly accumulated in the kidneys”.

B1: anti-human MUC1 antibody Fab fragment P10-2 (Fab, V domains shown)
VH: QVQLVQSGAEVKKPGASVKVSCKASGYTFTNYGLSWVRQAPGQGLEWMGENHPGSGIIYHNEKFRGRVTLTADRSTSTAYMELSSLRSEDTAVYYCARSSGTRGFDYWGQGTLVTVSS
VL: DVVMTQTPLSLSVTPGQPASISCRSSQSIVHSNGNTYLEWYLQKPGQSPQLLIYRVSNRFSGVPDRFSGSGSGTDFTLKISRVEAEDVGVYYCFQGSHGPWTFGQGTKLEIKR
modifications: glutamine of amino acid 1 modified to pyroglutamic acid (as Fab^5 is defined in paragraph 370)
On to B1, for which the EC50 is 0.06 nM and 0.14 nM in data set [3]; 0.06 nM and 0.14 nM in data set [4].

B2: anti-human CEACAM5 antibody Fab fragment PB009-01 (Fab, V domains shown)
VH: EVQLVESGGGLVQPGGSLRLSCAASGFNIRDTYMHWVRQAPGKGLEWVARIDPANGNSRYVPKFQGRFTISADTSRNTAYLQMNSLRAEDTAVYYCAPFGYYVSDYAMAYWGQGTLVTVSS
VL: DIQLTQSPSSLSASVGDRVTITCRAGESVDIFGVGFLHWYQQKPGKAPKLLIYRASNLESGIPSRFSGSGSRTDFTLTISSLQPEDFATYYCQQTNEDPYTFGQGTKVEIKR
notes: Humanized from mouse T84.66; also called Fab^2; Fab^2 fragment having no labeling portion
B2: the EC50 in data set [5] was 0.2 nM; in [6], 0.14 nM and 0.21 nM.

B3: [Gd/DOTA-NH-CH2-(1,4-Ph)-NH-C(═O)-Met-Ile-NH-(CH2)2-(A-3)]p-Fab^2 (Fab, V domains shown)
VH: EVQLVESGGGLVQPGGSLRLSCAASGFNIRDTYMHWVRQAPGKGLEWVARIDPANGNSRYVPKFQGRFTISADTSRNTAYLQMNSLRAEDTAVYYCAPFGYYVSDYAMAYWGQGTLVTVSS
VL: DIQLTQSPSSLSASVGDRVTITCRAGESVDIFGVGFLHWYQQKPGKAPKLLIYRASNLESGIPSRFSGSGSRTDFTLTISSLQPEDFATYYCQQTNEDPYTFGQGTKVEIKR
modifications: labeling may sit on this chain; sites not stated; labeling portion (MW 1187) on amino groups of the Fab, sites and chain not stated; 1-3 per Fab by MS
notes: also called Ex-No 68; Conjugate No. 68
B3 registered an EC50 in [7] of 0.31 nM.

B4: [Gd/DOTA-NH-CH2-(1,4-Ph)-NH-C(═O)-Met-Ile-NH-(CH2)2-(A-4 and/or A-5)]p-Fab^2 (Fab, V domains shown)
VH: EVQLVESGGGLVQPGGSLRLSCAASGFNIRDTYMHWVRQAPGKGLEWVARIDPANGNSRYVPKFQGRFTISADTSRNTAYLQMNSLRAEDTAVYYCAPFGYYVSDYAMAYWGQGTLVTVSS
VL: DIQLTQSPSSLSASVGDRVTITCRAGESVDIFGVGFLHWYQQKPGKAPKLLIYRASNLESGIPSRFSGSGSRTDFTLTISSLQPEDFATYYCQQTNEDPYTFGQGTKVEIKR
modifications: labeling may sit on this chain; sites not stated; labeling portion (MW 1092) on amino groups of the Fab, sites and chain not stated; 1-4 per Fab by MS
notes: also called Ex-No 66; Conjugate No. 66
B4 had an EC50 in [7] of 0.16 nM.

B5: [Gd/DOTA-[2,5-(1,2,3,4-tetrahydroisoquinoline)]-C(═O)-Met-Gly-Lys*-Z2(#N)]p-Fab^2 (conjugate)
heavy: EVQLVESGGGLVQPGGSLRLSCAASGFNIRDTYMHWVRQAPGKGLEWVARIDPANGNSRYVPKFQGRFTISADTSRNTAYLQMNSLRAEDTAVYYCAPFGYYVSDYAMAYWGQGTLVTVSSASTKGPSVFPLAPSSKSTSGGTAALGCLVKDYFPEPVTVSWNSGALTSGVHTFPAVLQSSGLYSLSSVVTVPSSSLGTQTYICNVNHKPSNTKVDKKVEPKSCD
light: DIQLTQSPSSLSASVGDRVTITCRAGESVDIFGVGFLHWYQQKPGKAPKLLIYRASNLESGIPSRFSGSGSRTDFTLTISSLQPEDFATYYCQQTNEDPYTFGQGTKVEIKRTVAAPSVFIFPPSDEQLKSGTASVVCLLNNFYPREAKVQWKVDNALQSGNSQESVTEQDSKDSTYSLSSTLTLSKADYEKHKVYACEVTHQGLSSPVTKSFNRGEC
Regarding B5, in [8], the “Renal residual amount (tumor-bearing mice) % of dose/tissue” value is 7.30 % of dose/tissue and the “Renal residual amount (tumor-bearing mice) Proportion of decrease” value is 71.74%. For the same molecule, the “Proportion of decrease (amount of Gd contained in the kidneys)” value in data set [9] (based on control conjugate Ex-No. 47, about 24 hours) is reported as 82.9%. The “% of dose/tissue (amount of Gd contained per kidney)” value in data set [9] (tail vein, 0.02 mg protein per animal, about 24 hours, ICP-MS, mean of 3 cases) is 5.3 % of dose/tissue. Further, the “Amount of tumor accumulation (tumor-bearing mice)” value in [10] stood at 4.53 % dose/g.
